In test [1] the target is Strep-tagged ACDC domain of PvAP2-I (residues 30-180) (P. vivax). Briefly: thermal shift assay.
Test [2] deals with His-tagged PvBDP1 ankyrin domain (fragment 1-220) (P. vivax). The experiment in a line: thermal shift assay.

Consider “synthetic peptide corresponding to PvBDP1 BAAS (residues 275-296)”, for which, in test [1], the Tm of the ACDC domain with peptide at a 1:10 molar ratio (61.1°C alone) is 60.1 °C and the Tm of the ACDC domain with peptide at a 1:40 molar ratio (61.1°C alone) was found to be 59.8 °C.

As for “synthetic peptide corresponding to the α3 helix of ASAIR of PvAP2-I (residues 280-310)”, in test [2], the Tm of the ankyrin domain with peptide at a 1:10 molar ratio (50.0°C alone) was 50.7 °C and the Tm of the ankyrin domain with peptide at a 1:40 molar ratio (50.0°C alone) was found to be 51.2 °C.
